In paper PMC3463621:

Target: recombinant collagen α1(XI) amino terminal domain (NTD) (UniProt P20909)
Test: SPR

Chain of UniProt P20909 (P20909 35-1561): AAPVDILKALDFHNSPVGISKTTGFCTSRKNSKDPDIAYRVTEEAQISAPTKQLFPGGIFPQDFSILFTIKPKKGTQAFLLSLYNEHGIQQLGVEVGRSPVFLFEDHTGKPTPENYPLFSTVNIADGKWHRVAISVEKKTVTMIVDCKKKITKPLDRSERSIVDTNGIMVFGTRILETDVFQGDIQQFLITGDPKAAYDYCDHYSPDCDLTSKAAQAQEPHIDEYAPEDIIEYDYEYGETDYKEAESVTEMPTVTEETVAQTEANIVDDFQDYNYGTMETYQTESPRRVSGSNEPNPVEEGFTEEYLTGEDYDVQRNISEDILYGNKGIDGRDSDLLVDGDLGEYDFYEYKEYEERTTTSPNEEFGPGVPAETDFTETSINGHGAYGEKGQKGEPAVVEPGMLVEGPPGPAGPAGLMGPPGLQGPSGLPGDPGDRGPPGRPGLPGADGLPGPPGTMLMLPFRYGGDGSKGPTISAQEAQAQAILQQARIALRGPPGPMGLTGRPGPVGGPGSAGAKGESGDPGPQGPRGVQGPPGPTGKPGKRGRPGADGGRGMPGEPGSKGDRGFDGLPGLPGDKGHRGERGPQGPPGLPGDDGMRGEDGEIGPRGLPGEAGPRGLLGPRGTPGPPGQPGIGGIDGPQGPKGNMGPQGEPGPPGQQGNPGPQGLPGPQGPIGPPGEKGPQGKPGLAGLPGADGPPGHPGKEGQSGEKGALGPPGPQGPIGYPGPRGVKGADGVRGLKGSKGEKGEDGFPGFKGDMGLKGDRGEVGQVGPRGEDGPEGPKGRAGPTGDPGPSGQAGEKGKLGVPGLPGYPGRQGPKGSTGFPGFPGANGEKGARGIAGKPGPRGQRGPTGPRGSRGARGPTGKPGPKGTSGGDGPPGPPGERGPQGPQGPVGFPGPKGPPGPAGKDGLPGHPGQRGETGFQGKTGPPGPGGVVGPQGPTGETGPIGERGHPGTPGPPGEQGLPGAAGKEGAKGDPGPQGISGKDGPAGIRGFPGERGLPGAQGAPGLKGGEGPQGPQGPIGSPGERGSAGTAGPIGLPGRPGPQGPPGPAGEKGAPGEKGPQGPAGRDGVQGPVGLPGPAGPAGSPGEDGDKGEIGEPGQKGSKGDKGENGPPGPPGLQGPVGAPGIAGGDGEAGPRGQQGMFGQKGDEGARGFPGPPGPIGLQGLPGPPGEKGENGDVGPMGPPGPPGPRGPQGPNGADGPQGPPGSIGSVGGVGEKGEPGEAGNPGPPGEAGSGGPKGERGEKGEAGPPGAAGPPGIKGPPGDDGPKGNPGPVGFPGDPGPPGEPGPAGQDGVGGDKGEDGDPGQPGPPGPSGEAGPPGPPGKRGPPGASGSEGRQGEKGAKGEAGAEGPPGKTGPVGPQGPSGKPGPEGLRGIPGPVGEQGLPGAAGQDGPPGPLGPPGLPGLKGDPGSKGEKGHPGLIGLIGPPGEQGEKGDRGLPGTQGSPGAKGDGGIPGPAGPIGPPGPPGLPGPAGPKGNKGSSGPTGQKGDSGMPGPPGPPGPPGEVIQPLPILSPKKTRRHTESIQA

Kd: 100 nM
Substance: Thrombospondin 1 (R&D Systems) (from UniProt P07996 19-1170) (natural protein)
